Test [1] concerns the target T1, BoNT/B light chain (recombinant) (Clostridium botulinum, UniProt P10844 1-441).
T1 sequence: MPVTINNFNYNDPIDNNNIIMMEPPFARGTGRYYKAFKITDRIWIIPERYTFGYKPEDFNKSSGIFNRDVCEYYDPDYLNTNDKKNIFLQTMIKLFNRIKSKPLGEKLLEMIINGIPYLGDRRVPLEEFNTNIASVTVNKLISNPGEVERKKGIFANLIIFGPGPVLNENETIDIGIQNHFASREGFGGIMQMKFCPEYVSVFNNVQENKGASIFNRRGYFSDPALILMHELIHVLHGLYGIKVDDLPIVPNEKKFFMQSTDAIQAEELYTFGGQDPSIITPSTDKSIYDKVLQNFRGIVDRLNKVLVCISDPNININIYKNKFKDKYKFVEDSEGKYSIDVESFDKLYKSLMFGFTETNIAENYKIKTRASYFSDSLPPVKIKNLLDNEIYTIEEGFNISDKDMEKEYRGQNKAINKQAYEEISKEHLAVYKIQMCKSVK
Briefly: yeast scFv FACS.

The target of the next test is T2, BoNT/B1 (Clostridium botulinum, UniProt P10844 2-1291).
T2 sequence: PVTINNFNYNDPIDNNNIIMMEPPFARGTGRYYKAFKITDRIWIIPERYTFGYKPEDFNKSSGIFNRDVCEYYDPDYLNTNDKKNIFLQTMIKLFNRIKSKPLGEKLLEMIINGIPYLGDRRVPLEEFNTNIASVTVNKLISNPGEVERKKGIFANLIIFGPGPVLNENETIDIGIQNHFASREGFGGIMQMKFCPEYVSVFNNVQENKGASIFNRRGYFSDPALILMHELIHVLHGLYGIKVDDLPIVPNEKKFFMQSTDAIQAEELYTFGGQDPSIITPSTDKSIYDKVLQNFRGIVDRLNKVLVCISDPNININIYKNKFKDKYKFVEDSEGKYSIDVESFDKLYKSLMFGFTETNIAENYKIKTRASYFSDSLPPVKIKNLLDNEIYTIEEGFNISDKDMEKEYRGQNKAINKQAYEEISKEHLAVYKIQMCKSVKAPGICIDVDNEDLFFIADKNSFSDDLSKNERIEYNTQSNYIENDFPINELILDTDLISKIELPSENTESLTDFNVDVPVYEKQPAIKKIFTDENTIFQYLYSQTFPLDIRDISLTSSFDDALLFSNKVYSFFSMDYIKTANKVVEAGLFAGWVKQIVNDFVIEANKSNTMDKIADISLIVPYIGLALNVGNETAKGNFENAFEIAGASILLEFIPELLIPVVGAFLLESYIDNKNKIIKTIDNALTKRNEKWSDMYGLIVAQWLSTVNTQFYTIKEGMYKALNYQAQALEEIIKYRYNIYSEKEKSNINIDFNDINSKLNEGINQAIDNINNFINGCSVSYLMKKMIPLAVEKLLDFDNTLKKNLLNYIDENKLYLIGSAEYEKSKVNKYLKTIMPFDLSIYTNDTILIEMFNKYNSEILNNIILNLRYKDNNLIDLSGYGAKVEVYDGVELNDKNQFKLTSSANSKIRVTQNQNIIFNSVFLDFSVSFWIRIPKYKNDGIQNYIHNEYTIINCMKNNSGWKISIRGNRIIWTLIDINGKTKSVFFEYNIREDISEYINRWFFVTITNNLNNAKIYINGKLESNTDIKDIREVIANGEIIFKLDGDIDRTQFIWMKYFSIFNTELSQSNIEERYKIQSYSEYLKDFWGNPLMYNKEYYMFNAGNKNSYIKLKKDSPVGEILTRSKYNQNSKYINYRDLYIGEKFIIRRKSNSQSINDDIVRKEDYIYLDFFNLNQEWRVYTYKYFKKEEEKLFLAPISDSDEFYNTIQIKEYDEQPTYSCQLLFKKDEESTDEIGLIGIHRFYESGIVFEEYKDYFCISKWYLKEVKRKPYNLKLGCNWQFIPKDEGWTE
The test is described as follows: yeast scFv FACS.

Test [2] has as its target T3, BoNT/F1 (proteolytic BoNT/F) (Clostridium botulinum, UniProt A7GBG3 1-1278).
T3 sequence: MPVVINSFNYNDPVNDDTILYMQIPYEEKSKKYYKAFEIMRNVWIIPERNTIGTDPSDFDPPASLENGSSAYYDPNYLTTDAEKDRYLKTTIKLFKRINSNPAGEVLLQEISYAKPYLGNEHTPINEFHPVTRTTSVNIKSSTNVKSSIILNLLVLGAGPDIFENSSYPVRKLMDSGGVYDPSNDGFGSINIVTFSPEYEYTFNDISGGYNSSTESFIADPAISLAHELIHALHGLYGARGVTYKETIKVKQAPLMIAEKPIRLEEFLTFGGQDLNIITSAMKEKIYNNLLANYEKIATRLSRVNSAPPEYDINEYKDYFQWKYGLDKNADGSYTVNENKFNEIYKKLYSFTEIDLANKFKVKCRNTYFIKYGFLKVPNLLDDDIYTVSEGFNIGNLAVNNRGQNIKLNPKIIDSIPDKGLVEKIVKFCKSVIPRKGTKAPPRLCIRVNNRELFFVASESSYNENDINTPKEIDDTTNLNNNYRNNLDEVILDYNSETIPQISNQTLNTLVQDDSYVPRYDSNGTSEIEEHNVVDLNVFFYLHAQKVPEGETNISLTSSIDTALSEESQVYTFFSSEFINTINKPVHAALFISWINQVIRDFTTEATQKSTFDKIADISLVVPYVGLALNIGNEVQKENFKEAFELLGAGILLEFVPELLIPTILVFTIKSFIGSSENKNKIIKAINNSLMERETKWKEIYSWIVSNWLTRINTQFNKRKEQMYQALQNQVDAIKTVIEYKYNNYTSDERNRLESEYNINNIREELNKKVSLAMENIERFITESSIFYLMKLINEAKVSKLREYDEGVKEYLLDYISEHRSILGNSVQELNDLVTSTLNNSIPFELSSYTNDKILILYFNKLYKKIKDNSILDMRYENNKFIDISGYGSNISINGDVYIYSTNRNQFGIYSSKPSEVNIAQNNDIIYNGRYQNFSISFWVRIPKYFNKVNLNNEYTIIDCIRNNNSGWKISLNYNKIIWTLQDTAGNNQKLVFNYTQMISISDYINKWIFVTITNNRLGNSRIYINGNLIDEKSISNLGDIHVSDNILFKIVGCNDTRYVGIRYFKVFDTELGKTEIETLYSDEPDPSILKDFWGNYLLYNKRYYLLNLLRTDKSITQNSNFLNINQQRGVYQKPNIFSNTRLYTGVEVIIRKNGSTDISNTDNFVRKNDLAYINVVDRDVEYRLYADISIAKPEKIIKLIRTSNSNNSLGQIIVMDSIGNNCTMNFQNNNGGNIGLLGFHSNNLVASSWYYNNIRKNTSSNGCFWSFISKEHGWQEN
The test is described as follows: IgG.

What is called Kd is the constant that tells how readily two partners part at equilibrium.

B1: 19B6 scFv (scFv)
scFv: QVQLQQSGAELVKPGASVKISCKASGYTFTDNYINWVKQRPGQGLEWIGWIHPGSGNAKYNEKFRAKATLTVDTSSNTAYMQLSSLTSEDSAVYFCARVGFRVNFDYWGQGTTLTVSSVDLKSGGSTSGSGKPGSGEGSSGSARQIVLTQSPAIMSASPGEKVTMTCSASSSLSYVHWYQQKPGSSPKPWIYATSNLVSGVPARFSGSRSGTSYSLTISSMEAEDAATYYCQQWSSYPPTFGAGTKLEIK
notes: mouse
On to B1, for which the Kd in test [1] is 2.35 nM; in the test with BoNT/B1, 19.7 nM.

B2: 6F4 IgG (antibody, V domains shown)
VH: EVQLQESGPELVKPGASVKISCKTSGYTFTDYYMNWVKQSHGKSLEWIGDINPNNGGATYNQKFKGKATLTVDKSSRTLYMELRSLTSEDSAVYHCACGPYFFDFWGQGTTLTVSS
VL: QIVLTQSPATMSASPGEKVTITCSASSSVNYMHWYQQKPGSSPKLWIYDTSSLAPGVPARFSGSGSGTSYSLTISSMEAEDAASYFCHQWSSYPYTFGGGTKLEIK
notes: IgG from scFv V genes
In turn, B2 registered a Kd in test [2] of 1.17 nM.

B3: 6F8 IgG (antibody, V domains shown)
VH: QVQLKQSGAELVKSGASVKLSCTASGFNIKDFYMHWVKQRTEQGLEWIGRIDPEDGETKYAPKFQGKATITADTSSNTAYLQLSSLTSEDTAVYYCVRDRDYDWGQGTTLTVSS
VL: not shown
notes: IgG from scFv V genes
Turning to B3, binding in test [2] was characterised by a dissociation constant (Kd) of 0.22 nM.

B4: 18E5 scFv (scFv)
scFv: EVQLQESGPELVKPGASVKISCKASGYTFTDHNMDWVKQSLGKSLEWIGDINPNNGGAVYNQNFKGKATLTVDKSSSTAYMELRSLTSEDTAVYYCARYGYYGYFDYWGQGTTLTVSSVDLKSGGSTSGSGKPGSGEGSSGSARQIVLTQSPAIMSASPGEKVTMTCRASSSVSSSYLHWYQQKPGSSPKLWIYSTSNLASGVPARFSGSGSGTSYSLTISSVEAEDAATYYCQQYDSSPSTFGAGTKLEIK
notes: mouse
Turning to B4, the dissociation constant (Kd) in test [1] stood at 1 nM; with BoNT/B1, 1.33 nM.

B5: 16B3 scFv (scFv)
scFv: EVQLQQSGPELVKPGASVKITCKASGYTFTDNNMDWVKQSHGKSLEWIGDINPNNGGSIYNQKFKGKASLTLDKSSSTAYMELRSLTSEDTAVYYCARWGYYGSLAYWGQGTLVTVSSVDLKSGGSTSGSGKPGSGEGSSGSARQNVLTQSPAIMSASPGEKVTMTCSASSSVSSRYLHWYQQKSGASPKLWIYGTSNLASGVPARFSGSGSGTSYSLTISSVEAEDAATYYCQQYHSDPLTFGGGTKLEIK
notes: mouse
As to B5, the dissociation constant (Kd) in test [1] worked out at 0.84 nM; in the test with BoNT/B1, 1.01 nM.

B6: 6F3 IgG (antibody, V domains shown)
VH: QVQLQQSGPEVVKPGASVKISCKASGYTFADYWIGWTKQGPGHGLEWIGHIYPGGGYINYNEKFKGKATLTADMSSSTAYMQFSSLTSEDSAIYYCARVTMVESGDWYFDVWGTGTTVTVSS
VL: ENVLTQSPAIMSASLGEEITLTCSASSSVSYMHWYQQKSGTSPKLWIYYTSNLASGVPARFSGSGSGTSYSLTISSMEAEDAATYYCQQWSSNPYTFGGGTKLEIK
notes: IgG from scFv V genes
Turning to B6, in test [2], the Kd is 2.39 nM.

B7: 6F5 IgG (antibody, V domains shown)
VH: EVQLVQSGGNLVQPGGSLRLSCAATGPIGSHWMTWVRQAPGQGLEWVANINLDGTEKFYVDSVKGRFTVSRDNRKSSVFLQMNNLRVDDTAVYYCARLQWGGYNGWLSPWGQGTLVTVSS
VL: DIEMTQSPPSLSASVGDRVSLTCRASEYIGTSLNWYQQKPGKAPKLLIYAASALHSGVPSRFSGSGSGTDFTLTISGLQPEDFATYYCQQANDLPLTFGGGTKLEIK
Turning to B7, in test [2], the Kd amounted to 0.66 nM.

B8: 6F7 IgG (antibody, V domains shown)
VH: QVQLQESGPGLVKPSQTVSLTCTVAGYSITNGNHWWNWIRQVSGSKLEWIGYITSSGSTDSNPSLKSRISITRDTSKNQLFLQLNSVTTEDIATYYCARSSNYFFHVLDYWGQGTSVTVSS
VL: DIVLTQTPAIMSASPGEKVTMTCSASSSVSYMHWFQQKPGTSPKLWIYSTSNLASGVPARFSGSGSGTSYSLTISRMEAEDAATYYCQQRSSYPPTFGGGTRLEIK
notes: IgG from scFv V genes
For B8, the dissociation constant Kd in test [2] turned out to be 0.57 nM.

B9: 6F6 IgG (antibody, V domains shown)
VH: EVQLLESGGGLVKPGGSRKLSCEASGFTFSDYGMHWVRQAPEKGLEWVGYISSGSRIIYYADTVKGRITISRDNAKNTLFLQMTSLRSEDTAMYYCVRGTWVFDYWGQGTTLTVSS
VL: DIVMTQSPASLAVSLGQRATISCRASESVDNYGISFMNWFQQKPGQPPKLLIYAASNLESGIPARFSGSGSGTDFTLTINPVEADDVATYYCQQSNEDPYTFGGGTKLEIK
notes: IgG from scFv V genes
In test [2], B9 showed an equilibrium dissociation constant (Kd) of 0.048 nM.

B10: 16D5 scFv (scFv)
scFv: EVKLVESGAELVRPGASVKLSCTPSGFNIKDDYMHWVKQRPEQGLEWIGRIDPANGNTRYAPKFQDKATLTADTSSNTAYLHLTSLTSEDTAVYYCARSYYRAWFDYWGQGTLVTVSSVDLKSGGSTSGSGKPGSGEGSSGSARQIVLTQSPATLSVTPGDSVSLSCRASQSISNNLHWYQQKSHESPRLLIKYASQSISGIPSRFSGSGSGTDFTLSINSVETEDFGMYFCQQSNSWPLTFGAGTRLEIK
notes: mouse
For the molecule B10, the dissociation constant Kd in test [1] was 1.8 nM; with BoNT/B1 it was 7.57 nM.

B11: 18A6 scFv (scFv)
scFv: EVQLQQSGPELVKPGASVKISCKASGYTFTDNYINWVKQRPGQGLEWIGWIYPGSGNTKYNEKFKGKATLTVDTSSNTAYMQLTGLASDDSAVYFCARVNFYVSWDYWGQGTSVTVSSVDLKSGGSTSGSGKPGSGEGSSGSAREIVLTQSPAIMSASPGEKVTMTCSASSSISYMHWFQQKPGMSPKRRIFDTSKLASGVPARFSGSGSGTSYSLTISSMEAEDAGTYYCHQRSSYPFTFGGGTKLELK
notes: mouse
As to B11, the dissociation constant (Kd) was found to be 4.21 nM in test [1] and 14.5 nM with BoNT/B1.

(Values after patent US20220089784A1 (University of California, published 2022).)
